What all share (experiment): FXa generation assay
Test [1] deals with Factor VIIIa (WT), thrombin-activated WT B-domainless FVIII.
Test [2] concerns the target Factor VIIIa D666S/S1787D swap variant (thrombin-activated B-domainless FVIII).
Test [3] concerns the target Factor VIIIa T657Y/Y1792T swap variant (thrombin-activated B-domainless FVIII).

Regarding “FIXaβ (from UniProt P00740 47-191; P00740 227-461) (enzyme)”, the Kd – broadly, the concentration at which binding is half-saturated – in test [1] turned out to be 0.92 nM; in test [2], 1.73 nM; in test [3] it was 1.45 nM.

The values are drawn from article PMC4870127.
